{
  "source": "patent US20190071490A1",
  "about": "“Preventing Post-Ictal Headaches” (Beth Israel Deaconess Medical Center, Inc., priority 2017, published 2019)",
  "key": {"[1]": {"target": "human α-CGRP 1-37 (WT) (human)", "sequence (peptide, as listed by the source)": "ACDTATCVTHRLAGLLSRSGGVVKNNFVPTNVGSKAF", "experiment": "Biacore, 25°C, Fab over biotinylated CGRP on SA chip"}, "[2]": {"target": "human α-CGRP N31A (25-37) (human)", "experiment": "Biacore SPR, 25 °C, Fab flowed across peptide on SA chip; KD of alanine mutant relative to parent fragment 25-37"}, "[3]": {"target": "human α-CGRP V28A (25-37) (human)", "experiment": "Biacore SPR, 25 °C, Fab flowed across peptide on SA chip; KD of alanine mutant relative to parent fragment 25-37"}, "[4]": {"target": "human α-CGRP V32A (25-37) (human)", "experiment": "Biacore SPR, 25 °C, Fab flowed across peptide on SA chip; KD of alanine mutant relative to parent fragment 25-37"}, "[5]": {"target": "human α-CGRP G33A (25-37) (human)", "experiment": "Biacore SPR, 25 °C, Fab flowed across peptide on SA chip; KD of alanine mutant relative to parent fragment 25-37"}, "[6]": {"target": "human α-CGRP F27A (25-37) (human)", "experiment": "Biacore SPR, 25 °C, Fab flowed across peptide on SA chip; KD of alanine mutant relative to parent fragment 25-37"}, "[7]": {"target": "human α-CGRP S34A (25-37) (human)", "experiment": "Biacore SPR, 25 °C, Fab flowed across peptide on SA chip; KD of alanine mutant relative to parent fragment 25-37"}, "[8]": {"target": "human α-CGRP P29A (25-37) (human)", "experiment": "Biacore SPR, 25 °C, Fab flowed across peptide on SA chip; KD of alanine mutant relative to parent fragment 25-37"}, "[9]": {"target": "human α-CGRP T30A (25-37) (human)", "experiment": "Biacore SPR, 25 °C, Fab flowed across peptide on SA chip; KD of alanine mutant relative to parent fragment 25-37"}, "[10]": {"target": "human α-CGRP 1-37 (WT) (human)", "experiment": "Biacore SPR, 25 °C, Fab flowed across N-biotinylated peptide on SA chip"}, "rat α-CGRP (1-37) (rat)": {"target": "rat α-CGRP (1-37) (rat)", "sequence (peptide, as listed by the source)": "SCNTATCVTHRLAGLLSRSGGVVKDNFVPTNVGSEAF", "experiment": "Biacore, 37°C, Fab over biotinylated CGRP on SA chip"}, "[11]": {"target": "human α-CGRP 1-37 (WT) (human)", "experiment": "Biacore, 37°C, Fab over biotinylated CGRP on SA chip"}, "[12]": {"target": "human α-CGRP fragment 25-37 (human)", "experiment": "Biacore, 25°C, Fab over biotinylated fragment (FIG. 1)"}, "[13]": {"target": "human α-CGRP K35A (19-37) (human)", "experiment": "Biacore SPR, 25 °C, Fab flowed across peptide on SA chip; KD of alanine mutant relative to parent fragment 19-37"}, "[14]": {"target": "human α-CGRP fragment 19-37 (human)", "experiment": "Biacore SPR, 25 °C, Fab flowed across N-biotinylated peptide on SA chip; mean ± SD of two independent measurements on different chips"}, "[15]": {"target": "human α-CGRP fragment 25-37 (human)", "experiment": "Biacore SPR, 25 °C, Fab flowed across N-biotinylated peptide on SA chip; mean ± SD of two independent measurements on different chips"}},
  "data": [
    {"substance": "anti-CGRP antibody 4901, Fab fragment", "values": [
      {"measurement": "Kd", "setting": "[1]", "result": 61, "unit": "nM"},
      {"measurement": "KD(mutant/parent)", "setting": "[2]", "result": 0.3},
      {"measurement": "KD(mutant/parent)", "setting": "[3]", "result": 0.8},
      {"measurement": "KD(mutant/parent)", "setting": "[4]", "result": 0.9},
      {"measurement": "KD(mutant/parent)", "setting": "[5]", "result": 1.3},
      {"measurement": "KD(mutant/parent)", "setting": "[6]", "result": 0.8},
      {"measurement": "KD(mutant/parent)", "setting": "[7]", "result": 0.8},
      {"measurement": "KD(mutant/parent)", "setting": "[8]", "result": 0.2},
      {"measurement": "KD(mutant/parent)", "setting": "[9]", "result": 0.2},
      {"measurement": "Kd", "setting": "[10]", "result": 60.5, "unit": "nM"},
      {"measurement": "Kd", "setting": "rat α-CGRP (1-37) (rat)", "result": 3.4, "unit": "nM"},
      {"measurement": "Kd", "setting": "[11]", "result": 139, "unit": "nM"},
      {"measurement": "fold lower affinity than to full length human α-CGRP", "setting": "[12]", "result": 6, "unit": "fold"},
      {"measurement": "KD(mutant/parent)", "setting": "[13]", "result": 0.3},
      {"measurement": "Kd", "setting": "[14]", "result": 52, "unit": "nM"},
      {"measurement": "Kd", "setting": "[15]", "result": 296, "unit": "nM"}
    ]}
  ]
}
